Reference: publication PMC7498260, “The peroxisome counteracts oxidative stresses by suppressing catalase import via Pex14 phosphorylation” (eLife, 2020)

Target: Pex5L (Chinese hamster, ClPex5L) (Chinese hamster, UniProt Q920N5 1-640)
Assay: pull-down; GST-Pex14 variants (2 μg) on glutathione-Sepharose beads incubated with Pex5L (2 μg) together with EGFP-PTS1 (4 μg) or HA-catalase (4 μg), 2 hr at 4°C, 50 mM Tris-HCl pH 7.5, 0.15 M NaCl, 1% Triton X-100, 10% glycerol; bound fraction by immunoblot, quantified and normalised by GST-Pex14
Settings: both partners purified

B1: HA-catalase (human) (enzyme)
chain: MADSRDPASDQMQHWKEQRAAQKADVLTTGAGNPVGDKLNVITVGPRGPLLVQDVVFTDEMAHFDRERIPERVVHAKGAGAFGYFEVTHDITKYSKAKVFEHIGKKTPIAVRFSTVAGESGSADTVRDPRGFAVKFYTEDGNWDLVGNNTPIFFIRDPILFPSFIHSQKRNPQTHLKDPDMVWDFWSLRPESLHQVSFLFSDRGIPDGHRHMNGYGSHTFKLVNANGEAVYCKFHYKTDQGIKNLSVEDAARLSQEDPDYGIRDLFNAIATGKYPSWTFYIQVMTFNQAETFPFNPFDLTKVWPHKDYPLIPVGKLVLNRNPVNYFAEVEQIAFDPSNMPPGIEASPDKMLQGRLFAYPDTHRHRLGPNYLHIPVNCPYRARVANYQRDGPMCMQDNQGGAPNYYPNSFGAPEQQPSALEHSIQYSGEVRRFNTANDDNVTQVRAFYVNVLNEEQRKRLCENIAGHLKDAQIFIQKKAVKNFTEVHPDYGSHIQALLDKYNAEKPKNAIHTFVQSGSHLAAREKANL
notes: catalase, human (HsCatalase); HA-Catalase amplified from pUcD3/HA-HsCatalase (Otera and Fujiki, 2012) and cloned into pGEX6P-1; The forward primer GST-HA-HsCatalase.BglFw starts with ATG GCT TAT CCA TAC GAC, i.e. the HA tag lies at the N-terminus of catalase; also called HA-HsCatalase; source: E. coli DH5α, GST fusion purified with glutathione-Sepharose beads, isolated by cleaving …
- binding result: binds
